System: Escherichia coli TOP10
Assay: shrunken log2 fold change of peptide-encoding DNA abundance (4.5 h post-induction vs induction); higher = less antimicrobial activity (less host growth inhibition)
Settings: time post-induction: 4.5 h; library: site-saturation at positions 5, 18, 19, 20
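Further: peptides expressed intracellularly from a pBAD plasmid library in pooled LB shake-flask culture, induced with 0.3% L-arabinose, DNA abundance read by NGS, three biological replicates, DESeq2 with apeglm shrinkage.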

Sequence	shrunken log2 fold change
RRIRLRPPRLPRPRPRPLHKPRP	0.223
RRIRWRPPRLPRPRPRPAPVPRP	0.433
RRIRERPPRLPRPRPRPAYYPRP	-0.356
RRIRDRPPRLPRPRPRPALQPRP	0.671
RRIRSRPPRLPRPRPRPVNTPRP	-0.691
RRIRCRPPRLPRPRPRPRMDPRP	-0.0539
RRIRKRPPRLPRPRPRPCMSPRP	-0.0865
RRIRSRPPRLPRPRPRPCKDPRP	-0.153
RRIRSRPPRLPRPRPRPWYPPRP	-0.301
RRIRVRPPRLPRPRPRPNNKPRP	-0.472
RRIRCRPPRLPRPRPRPGGTPRP	-0.0298
RRIRRRPPRLPRPRPRPHRFPRP	-0.0954
RRIRFRPPRLPRPRPRPCDDPRP	-0.00233
RRIRRRPPRLPRPRPRPPFYPRP	0.463
RRIRMRPPRLPRPRPRPWNGPRP	-0.0377
RRIRWRPPRLPRPRPRPNKWPRP	-0.0175
RRIRRRPPRLPRPRPRPSCEPRP	0.13
RRIRNRPPRLPRPRPRPPLHPRP	0.0562
RRIRLRPPRLPRPRPRPKRSPRP	0.558
RRIRRRPPRLPRPRPRPQECPRP	-0.0184
RRIRKRPPRLPRPRPRPSKFPRP	-0.16
RRIRVRPPRLPRPRPRPNDWPRP	-0.208
RRIRYRPPRLPRPRPRPMYPPRP	-0.00192
RRIRKRPPRLPRPRPRPMLPPRP	0.349
RRIRPRPPRLPRPRPRPWDSPRP	-0.456

Sequence	shrunken log2 fold change
RRIRIRPPRLPRPRPRPFCSPRP	-0.426
RRIRSRPPRLPRPRPRPFKIPRP	-0.466
RRIRRRPPRLPRPRPRPSFWPRP	0.38
RRIRSRPPRLPRPRPRPRLNPRP	0.15
RRIRQRPPRLPRPRPRPEFCPRP	0.0723
RRIRFRPPRLPRPRPRPKCLPRP	0.049
RRIRRRPPRLPRPRPRPKMLPRP	0.161
RRIRWRPPRLPRPRPRPLPDPRP	0.672
RRIRRRPPRLPRPRPRPACVPRP	0.451
RRIRNRPPRLPRPRPRPKPDPRP	0.355
RRIRERPPRLPRPRPRPRDQPRP	0.424
RRIRHRPPRLPRPRPRPIPKPRP	-0.0389
RRIRPRPPRLPRPRPRPKTFPRP	-0.322
RRIRIRPPRLPRPRPRPVNNPRP	-0.272
RRIRKRPPRLPRPRPRPAPEPRP	1.26
RRIRCRPPRLPRPRPRPMKYPRP	-0.82
RRIRTRPPRLPRPRPRPGWQPRP	0.174
RRIRHRPPRLPRPRPRPWARPRP	-0.00568
RRIRHRPPRLPRPRPRPFVFPRP	-0.0736
RRIRQRPPRLPRPRPRPLPIPRP	0.231
RRIRDRPPRLPRPRPRPFPYPRP	-0.136
RRIRLRPPRLPRPRPRPFAPPRP	0.263
RRIRPRPPRLPRPRPRPWTTPRP	-0.012
RRIRCRPPRLPRPRPRPDEKPRP	0.118
RRIRKRPPRLPRPRPRPHPDPRP	-0.0313

Sequence	shrunken log2 fold change
RRIRLRPPRLPRPRPRPREQPRP	0.134
RRIRRRPPRLPRPRPRPEINPRP	-0.0385
RRIRFRPPRLPRPRPRPDYNPRP	-0.422
RRIRKRPPRLPRPRPRPMDGPRP	0.231
RRIRQRPPRLPRPRPRPMNSPRP	-0.468
RRIRVRPPRLPRPRPRPYGHPRP	-0.0167
RRIRRRPPRLPRPRPRPNKSPRP	-0.0615
RRIRYRPPRLPRPRPRPNWSPRP	0.0306
RRIRWRPPRLPRPRPRPYFHPRP	-0.625
RRIRYRPPRLPRPRPRPHPFPRP	-1.3
RRIRQRPPRLPRPRPRPICMPRP	-0.0553
RRIRCRPPRLPRPRPRPAFIPRP	0.0295
RRIRARPPRLPRPRPRPGIIPRP	0.106
RRIRIRPPRLPRPRPRPLMMPRP	-1.03
RRIRYRPPRLPRPRPRPNTIPRP	-1.05
RRIRYRPPRLPRPRPRPQHQPRP	-0.304
RRIRGRPPRLPRPRPRPMTHPRP	0.708
RRIRGRPPRLPRPRPRPPNNPRP	0.835
RRIRVRPPRLPRPRPRPYYIPRP	-0.284
RRIRCRPPRLPRPRPRPGGCPRP	0.153
RRIRNRPPRLPRPRPRPWNEPRP	-0.233
RRIRPRPPRLPRPRPRPFWHPRP	-0.017
RRIRGRPPRLPRPRPRPWDFPRP	0.328
RRIRTRPPRLPRPRPRPPHPPRP	0.255
RRIRVRPPRLPRPRPRPHWAPRP	0.142

Sequence	shrunken log2 fold change
RRIRYRPPRLPRPRPRPMQYPRP	-0.131
RRIRPRPPRLPRPRPRPLKAPRP	-0.0747
RRIRNRPPRLPRPRPRPAGAPRP	0.665
RRIRDRPPRLPRPRPRPEFCPRP	1.14
RRIRFRPPRLPRPRPRPTQHPRP	0.168
RRIRVRPPRLPRPRPRPDCFPRP	0.0303
RRIRCRPPRLPRPRPRPLYSPRP	-0.672
RRIRWRPPRLPRPRPRPYYHPRP	-0.306
RRIRARPPRLPRPRPRPHTWPRP	0.0641
RRIRPRPPRLPRPRPRPGWDPRP	0.011
RRIRERPPRLPRPRPRPSPSPRP	-0.269
RRIRGRPPRLPRPRPRPDVVPRP	0.424
RRIRPRPPRLPRPRPRPSHDPRP	-0.339
RRIRLRPPRLPRPRPRPFEPPRP	0.00273
RRIRSRPPRLPRPRPRPPRRPRP	0.701
RRIRGRPPRLPRPRPRPKATPRP	1.52
RRIRVRPPRLPRPRPRPGNYPRP	-0.162
RRIRLRPPRLPRPRPRPSCNPRP	-0.661
RRIRLRPPRLPRPRPRPWHWPRP	0.019
RRIRNRPPRLPRPRPRPVINPRP	-0.512
RRIRLRPPRLPRPRPRPSNYPRP	-0.53
RRIRTRPPRLPRPRPRPSSSPRP	-0.164
RRIRLRPPRLPRPRPRPPRSPRP	0.422
RRIRVRPPRLPRPRPRPSQFPRP	-0.952
RRIRVRPPRLPRPRPRPHWQPRP	-0.024

Sequence	shrunken log2 fold change
RRIRERPPRLPRPRPRPCCEPRP	-0.366
RRIRWRPPRLPRPRPRPITDPRP	-0.15
RRIRQRPPRLPRPRPRPEDRPRP	-0.0214
RRIRERPPRLPRPRPRPAHLPRP	0.301
RRIRKRPPRLPRPRPRPHGTPRP	-0.0973
RRIRLRPPRLPRPRPRPLWFPRP	-0.543
RRIRNRPPRLPRPRPRPQVQPRP	-0.524
RRIRWRPPRLPRPRPRPKTAPRP	0.203
RRIRERPPRLPRPRPRPPDTPRP	-0.426
RRIRIRPPRLPRPRPRPCFEPRP	-0.626
RRIRGRPPRLPRPRPRPFFTPRP	0.215
RRIRHRPPRLPRPRPRPCVAPRP	0.0478
RRIRGRPPRLPRPRPRPKCYPRP	0.107
RRIRYRPPRLPRPRPRPNNWPRP	-0.398
RRIRNRPPRLPRPRPRPGSVPRP	-0.0436
RRIRMRPPRLPRPRPRPHVYPRP	-0.207
RRIRRRPPRLPRPRPRPIYTPRP	-0.176
RRIRPRPPRLPRPRPRPYRSPRP	-0.295
RRIRMRPPRLPRPRPRPCSMPRP	-0.0341
RRIRFRPPRLPRPRPRPAWEPRP	0.62
RRIRLRPPRLPRPRPRPFTTPRP	0.0966
RRIRHRPPRLPRPRPRPWETPRP	-0.141
RRIRERPPRLPRPRPRPLCNPRP	-0.342
RRIRHRPPRLPRPRPRPRRWPRP	-0.00291
RRIRTRPPRLPRPRPRPGKTPRP	-0.0222

— the supplement of paper PMC9112550, “Optimization of the antimicrobial peptide Bac7 by deep mutational scanning” (BMC Biology, 2022)
